In article PMC10269683, “comCDE (Competence) Operon Is Regulated by CcpA in Streptococcus pneumoniae D39”:

Legend:
[1] = target: T1, CcpA (Streptococcus pneumoniae D39, UniProt A0A0H2ZQ65 1-336); experiment: EMSA; increasing CcpA; EMSA: 10 mM Tris-HCl pH 7.4, 1 mM DTT, 1 mM EDTA, 50 mM KCl, 5% glycerol, 50 ug/mL BSA, 0.05% NP-40, 20 min 37 C; footprinting binding 30 min 25 C; details: protein: recombinant; label: biotin; blunt
[2] = target: T1, CcpA; experiment: EMSA; complex at 1 ug CcpA, 1 ng probe; unlabeled Np54 (100 ng) diminished complex; EMSA: 10 mM Tris-HCl pH 7.4, 1 mM DTT, 1 mM EDTA, 50 mM KCl, 5% glycerol, 50 ug/mL BSA, 0.05% NP-40, 20 min 37 C; footprinting binding 30 min 25 C; details: protein: recombinant; label: 5' biotin; blunt

| Binder | binding result [1] | binding result [2] |
| --- | --- | --- |
| Mut cre1 (dsDNA) DNA 1: ATATAATAGATGCATGTCATGTGAATTCCACGTTGCATCTAATTAAGTACACTTTGGGAGAAAAAAATGACAGTTGAGA DNA 2: TCTCAACTGTCATTTTTTTCTCCCAAAGTGTACTTAATTAGATGCAACGTGGAATTCACATGACATGCATCTATTATAT | binds |  |
| P54 (cre3+cre4) (dsDNA) DNA 1: TAAGTTAGCTTACAAGAAAAAACATTTTAGGAGATTTTATTATGAAAAACACAG DNA 2: CTGTGTTTTTCATAATAAAATCTCCTAAAATGTTTTTTCTTGTAAGCTAACTTA |  | binds |
| Mut cre2 (dsDNA) DNA 1: ATATAATAGCAAAGCTGGGAATTTTCCCGGCTTTTTTCTTAAAAAAGTACACAACGATAGATATTAGGTAGAATGGAGA DNA 2: TCTCCATTCTACCTAATATCTATCGTTGTGTACTTTTTTAAGAAAAAAGCCGGGAAAATTCCCAGCTTTGCTATTATAT | binds |  |
